Reference: PMC12015630

Biological target: LmrR_V15aY
Experiment: SEC; purified LmrR_V15aY after affinity chromatography; conditions not shown (Fig. S2, ESI)

LmrR_V15aY (enzyme)
stoichiometry N: 2
